Reference: doi:10.1101/2025.03.06.641927, “Constitutively active RAS prolongs Cdc42 signalling while attenuating MAPK signalling during fission yeast mating” (bioRxiv, 2025)
One block for each binder: values may come before it.

How the values were obtained:
[1] = target: T1, His6-Ras1.G17V (1-172), GTP-loaded (fission yeast (Schizosaccharomyces …, UniProt P08647 1-172, G17V)); test: pull-down; GST fusion on glutathione sepharose beads incubated with GTP-loaded Ras1.G17V (1-172) in buffer A (20 mM Tris-Cl pH 7.5, 100 mM NaCl, 5 mM MgCl2, 1 mM beta-mercaptoethanol), 4 C, 30 min; bound fraction on SDS-PAGE, InstantBlue stain; details: both partners purified
T1 construct: Loaded with GTP by EDTA-mediated exchange (8 mM GTP, 12 mM EDTA, 37 C, 10 min; stopped with 20.5 mM MgCl2) just before the pull-down; Cloned in vector pLEICS1; also called Ras1.G17V^GTP; source: E. coli BL21 Rosetta, purified (Ni Sepharose 6 Fast Flow), dialysed, loaded with GTP
T1 sequence (looked up): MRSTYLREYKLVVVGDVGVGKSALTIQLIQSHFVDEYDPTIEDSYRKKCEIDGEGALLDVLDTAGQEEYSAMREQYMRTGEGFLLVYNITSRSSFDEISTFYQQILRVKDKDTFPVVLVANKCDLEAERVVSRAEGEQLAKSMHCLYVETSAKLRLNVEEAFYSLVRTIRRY

[2] = target: T1, His6-Ras1.G17V (1-172), GTP-loaded; test: pull-down; competition: GST-Byr2 (65-180) on glutathione beads incubated with GTP-loaded Ras1.G17V (1-172) with or without Scd1 (760-872) fragment, buffer A, 4 C, 30 min; Ras1.G17V band on SDS-PAGE quantified with Fiji; details: both partners purified

binding result [1]: binds
B1: GST-Byr2 (65-180) (domain or fragment, UniProt P28829 65-180, looked up)
chain: REFPRPCILRFIACNGQTRAVQSRGDYQKTLAIALKKFSLEDASKFIVCVSQSSRIKLITEEEFKQICFNSSSPERDRLIIVPKEKPCPSFEDLRRSWEIELAQPAALSSQSSLSP
notes: Cloned in vector pLEICS4; also called GST-Byr2-RBD; Byr2-RBD; source: E. coli BL21 Rosetta, purified on glutathione sepharose 4B (kept on the beads); not shown: GST, N-terminal, kept

binding result [1]: binds
B2: GST-Scd1 (760-872) (domain or fragment, UniProt P40995 760-872, looked up)
chain: SSSTSTSLSVRNTTNVKIRLRLHEVSLVLVVAHDITFDELLAKVEHKIKLCGILKQAVPFRVRLKYVDEDGDFITITSDEDVLMAFETCTFELMDPVHNKGMDTVSLHVVVYF
notes: Cloned in vector pLEICS4; also called GST-Scd1-PB1; Scd1-PB1; source: E. coli BL21 Rosetta, purified on glutathione sepharose 4B (kept on the beads); not shown: GST, N-terminal, kept

binding result [2]: binds
B3: Scd1 (760-872) fragment (domain or fragment, UniProt P40995 760-872, looked up)
chain: B2 chain
notes: also called Scd1-PB1 (cleaved from GST); not shown: GST, N-terminal, cleaved
